{"source": "patent US20230272099A1", "about": "(Chugai, published 2023)", "binders": {"B1": {"name": "20H4.9-mIgG1/20H4.9LC-mk0 (antibody)", "heavy": "QVQLQQWGAGLLKPSETLSLTCAVYGGSFSGYYWSWIRQSPEKGLEWIGEINHGGYVTYNPSLESRVTISVDTSKNQFSLKLSSVTAADTAVYYCARDYGPGNYDWYFDLWGRGTLVTVSSAKTTPPSVYPLAPGSAAQTNSMVTLGCLVKGYFPEPVTVTWNSGSLSSGVHTFPAVLQSDLYTLSSSVTVPSSTWPSETVTCNVAHPASSTKVDKKIVPRDCGCKPCICTVPEVSSVFIFPPKPKDVLTITLTPKVTCVVVDISKDDPEVQFSWFVDDVEVHTAQTQPREEQFNSTFRSVSELPIMHQDWLNGKEFKCRVNSAAFPAPIEKTISKTKGRPKAPQVYTIPPPKEQMAKDKVSLTCMITDFFPEDITVEWQWNGQPAENYKNTQPIMDTDGSYFVYSKLNVQKSNWEAGNTFTCSVLHEGLHNHHTEKSLSHSPGK", "light": "EIVLTQSPATLSLSPGERATLSCRASQSVSSYLAWYQQKPGQAPRLLIYDASNRATGIPARFSGSGSGTDFTLTISSLEPEDFAVYYCQQRSNWPPALTFGGGTKVEIKRADAAPTVSIFPPSSEQLTSGGASVVCFLNNFYPKDINVKWKIDGSERQNGVLNSWTDQDSKDSTYSMSSTLTLTKDEYERHNSYTCEATHKTSTSPIVKSFNRNEC", "notes": "also called NS1-mIgG1"}}, "key": {"hCD137 (FXa digested) [1]": {"biological_target": "T1, hCD137 (FXa digested) (human, UniProt Q07011 24-186)", "T1 construct": "Factor Xa digestion and Protein A removed the Fc; also called human CD137 extracellular domain", "T1 sequence (Q07011 other isoform, or with tags, fused parts or gaps limits assumed)": "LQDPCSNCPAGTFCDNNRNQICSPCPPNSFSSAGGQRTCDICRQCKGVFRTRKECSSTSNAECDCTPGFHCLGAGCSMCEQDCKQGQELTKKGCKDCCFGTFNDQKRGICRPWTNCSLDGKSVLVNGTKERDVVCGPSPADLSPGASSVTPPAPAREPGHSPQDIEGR", "test": "SPR 37C, no ATP", "method": "(§1) Measurements of human CD137 binding were taken at 37° C. using 20 mM ACES (pH 7.4), 150 mM NaCl, 2 mM MgCl₂, and 0.05% Tween20 as running buffer. At first, antibodies were captured by interacting antibody solutions prepared in running buffer with the rabbit anti-mouse IgG (Thermo Scientific)-immobilized Series S Sensor Chip CM5 (GE Healthcare). The human CD137-binding activity in the presence of ATP and in the absence of ATP was then assessed by interacting with a human CD137 solution prepared in running buffer supplemented with a desired concentration of ATP, or a human CD137 solution prepared in running buffer without ATP. […] The chip was regenerated using 25 mM NaOH and 10 mM Glycine-HCl (pH 1.5), and measurements were performed by repeatedly capturing antibodies. Dissociation constant (KD) of the respective antibodies for human CD137 was calculated using Biacore T200 Evaluation Software 2.0. Specifically, the association rate constant ka (L/mol/s) and the dissociation rate constant kd (1/s) were calculated by global fitting of the sensorgrams obtained by measurement with the 1:1 Langmuir binding model, and the dissociation constant KD (mol/L) was calculated from these values."}, "hCD137 (FXa digested) [2]": {"biological_target": "T1, hCD137 (FXa digested)", "test": "SPR 37C, 10 uM ATP", "method": "as §1"}, "hCD137 (FXa digested) [3]": {"biological_target": "T1, hCD137 (FXa digested)", "test": "SPR 37C, 1 uM ATP", "method": "as §1"}, "hCD137 (FXa digested) [4]": {"biological_target": "T1, hCD137 (FXa digested)", "test": "SPR 37C, 100 uM ATP", "method": "as §1"}}, "data": [{"binder": "B1", "values": [{"measurement": "Kd", "setting": "hCD137 (FXa digested) [1]", "value": 61.7, "unit": "nM"}, {"measurement": "Kd", "setting": "hCD137 (FXa digested) [2]", "value": 54.4, "unit": "nM"}, {"measurement": "Kd", "setting": "hCD137 (FXa digested) [3]", "value": 56.2, "unit": "nM"}, {"measurement": "Kd", "setting": "hCD137 (FXa digested) [4]", "value": 53.6, "unit": "nM"}]}]}
